Reference: the nanobody polyreactivity screen of Harvey et al. (2022)

Test: yeast display, Sf9 membrane polyspecificity reagent, FACS + sequencing; frameworks hold sequencing errors
Procedure, shortened: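 Using colony PCR, genes from sorted yeast display clones were amplified, then sequenced on MiSeq at 2 × 250 and filtered by CDR length. The clones had been stained with 10% biotinylated, detergent-solubilized Sf9 membrane reagent for 1 hour at 4 °C and sorted by FACS into low and high (top ~1%) gates on anti-HA and streptavidin fluorescence. Polyreactivity labels come from the gate of origin.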

Sequence | polyreactivity (PSR sort gate)
QVQLVESGGGLVQAGGSLRLSCAASGITLYFYARGWYRQAPGKERELVAAISRGGRTYYADSVKGRFTISRDNAKNTVYLQMNSLKPEDTAVYDCAARYTSEYSAFDYWGQGTQVTVSS | low polyreactivity
QVQLVESGGGLVQAGGSLRLSCAASGITLYQYAMGWYRQAPGKERELVAAISWNGGTTYYADSVKGRFTISRDNAKNNVYLQMNSLKPEDTAVYYCAADGYPYGGPSYYYWGQGTQVTVSS | high polyreactivity
QVQLVESGGGLVQAGGSLRLSCAASGITLYRYTMGWDRQAPGTEREFVAAISRSGGSTYYADSVKGRFTISRDNEKNTVYVQMNSLKPEDTAVYYCAARWYEKTTRPYGSWGQGTQVTVSS | high polyreactivity
QVQLVESGGGLVQAGGSLRLSCAASGITSKQYAMGWYRQAPGKEWELVAAISGSGTRTYYADSVKGRFTISRDNAKNTVYLQMNSQKPEDTAVYYCAAYYHLVVKRLRYDYWGQGTQVTVSS | high polyreactivity
QVQLVESGGGLVQAGGSLRLSCAASGITSNTYAKGWYRQATGKERELVATITSGGSTNYADSVKGRFTISRDNAKNTVYLQMNSLKPEDTAVYFCNREYWLPTQFDYWGQGTQVTVSS | low polyreactivity
QVQLVESGGGLVQAGGSLRLSCAASGITSPSYAMGWYRQAPGKERELVAAISTSGGDTYYADSVKGRFTISRDKAKNTVYLQMNSLKPEDTAVYYCAAPVPAYQYYYRLKSFGRRYDHWGQGTQVTVSS | low polyreactivity
QVQLVESGGGLVQAGGSLRLSCAASGITSVDYAMRWYRQAPGKERELVAAITWSDSSTYYADSVKGRFTISRDNAKNTVYLQMNSLKPEDTAVYYCAAEYYFWGWEFDYWGQGTQVTVSS | high polyreactivity
QVQLVESGGGLVQAGGSLRLSCAASGITTRTYAMGWYRQAPGKDRELVAAISDSGDRTYYADSVKGRCTISRDKAKNTVYLQMNSLKPEDTAVYYCAVDAPGPRGEYWGQGTKVTVSS | low polyreactivity
QVQLVESGGGLVQAGGSLRLSCAASGITVALNAMGWYRQAPGKERELVAAISWSGDSTYYADSVKGRFTISRDNAKNTVYLQMNSLKPEDTAVYYCNTYPRRFFYSQRYDYWGQGTQVTVSS | low polyreactivity
QVQLVESGGGLVQAGGSLRLSCAASGITVDYYVMGWYRQAPGKERELVASIDSGGRTKYADSVKGRFTISRDNAKNTVYLQMNILKPEDTAVYYCAARSYVFRSRWIRWPKYWGQGTQVTVSS | high polyreactivity
QVQLVESGGGLVQAGGSLRLSCAASGITVWIYAMGWYRQAPGKERELVAAITGRGGSTYYADSVKGRFTISRDKAKNTLYLQRNSLKPEDTAVYYCAAESWYSTYDYWGQGTQVTVSS | high polyreactivity
QVQLVESGGGLVQAGGSLRLSCAASGITYGYVMGLYRQAPGKERELVAAISYRGGSTYYADSVKGRFTISRDNAKNTVYLQMNSLKPEDTAVYYCATEASGKTYGYVAYDYWGQGTQVTVSS | high polyreactivity
QVQLVESGGGLVQAGGSLRLSCAASGITYTVYAMGWYRQAPGKERELVAVINESGGSTYYADSVKGRFTISRDNAKNTVYLQMNSLKPEDTAVYYCNKTRVYVSSTYDYWGLGTQVTVSS | low polyreactivity
QVQLVESGGGLVQAGGSLRLSCAASGIYAYVMGWYRPAPGKERELVAAISGTGGRTYYADSVKGRFTISRDNAKNTVYLQMNSLKPEDTAVYYCAARGIYQPKTFDYWGQGTQVTVSS | high polyreactivity
QVQLVESGGGLVQAGGSLRLSCAASGKTFDPNAMGWYIPAPGKEREFVAAIATIGSSTYYADSVKGRFTMSRDNAKNTVYLPMTCLKPEDSAVYYCAKGIYVVYGIDDYWGQGTQVTVSS | low polyreactivity
QVQLVESGGGLVQAGGSLRLSCAASGKTFVYYTMGWYRQAPGKERELVAAISYSGGSTYYADSVKGRFTLSRDNAKNTVYLQMNSLKPEDTAVYYCAKQVADRYDYWGQGTQVTVSS | low polyreactivity
QVQLVESGGGLVQAGGSLRLSCAASGLICTPYAMGWYRQSPGKERELVAAISVSGGRTYYADSVKGRFTISRDNAKNTVYLQMNSLKREDTAVYYCAAALPYGYEYWGQGTQVTVSS | high polyreactivity
QVQLVESGGGLVQAGGSLRLSCAASGLIFAEYAMGWYRQAPGKERELVARITSAGSTDYADSVKGRFTISRDNAKNTVYLQMNSLKPEDTAVYYCAARYYSQDKNASTASDFDYWGQGTQVTVSS | low polyreactivity
QVQLVESGGGLVQAGGSLRLSCAASGLIFAEYAMGWYRQAPGKERELVARITSGGSTDYADSVKGRFTISRDNAKNTVYLQMNRLKPEDTAVYYCSARYYSQDKNASTASDFDYWGQGTQVTVSS | low polyreactivity
QVQLVESGGGLVQAGGSLRLSCAASGLIFAGNDMGWYRQAPGKERELVARITNGGGSTYYADSVKGRFTISRDNAKNTVYLQMNSLKPEDTAVYYCNAGRSSGYSYDSWGPGTQVTVSS | low polyreactivity
QVQLVESGGGLVQAGGSLRLSCAASGLIFAIYAMGWYRKAPGKERELVAAISSGGGRTYYADSVKGRFTISRDNAKNTVYLQMNSLKPEDTAVYYCNARYRTVRSGGEYWVLMDYWGQGTQVTVSS | high polyreactivity
QVQLVESGGGLVQAGGSLRLSCAASGLIFANNAMGWYRQAPGKERELVAVISRGGRTYYADSVKGRFTISRDNAKNTVYLQMNSLKPEDTAVYYCAKPVLVGLGARYVYWGQGTQVTVSS | high polyreactivity
QVQLVESGGGLVQAGGSLRLSCAASGLIFASYAMGWYRQAPGKERELVAAITSSGGSTYYADSVKGRFTISRDNAKNTVYLQMNSLKPEDTAVYYCAADIYTYNLFYHWSWLDYNYWGQGTQVTVSS | high polyreactivity
QVQLVESGGGLVQAGGSLRLSCAASGLIFDANAMGWYRLAPVKERELVAAITGSGGRTYSADSVKGRFTISRDTANYTVYCQMNCLKPEATGVYYCAASSKRKVLYNYWGQGTQVTVSS | high polyreactivity
QVQLVESGGGLVQAGGSLRLSCAASGLIFDPNTMGWYRQAPGKERELVAAISSGGDTNYADSVKGRFTISRDNAKNTVYLQMNSQKPEDTAVYYCATDIRFHDPSEYEGVHFEYWGQGTQVTVSS | low polyreactivity
QVQLVESGGGLVQAGGSLRLSCAASGLIFEYYAMGWYRQAPGKERELVAVINWSGASTYYADSVKGRFTISRDNAKNTVYLQMNSLKPEDTAVYYCAAGVLITGLRFDYWGQGTQVTVSS | low polyreactivity
QVQLVESGGGLVQAGGSLRLSCAASGLIFGINAMGWYRQAPGKERELVASISRSTTRTYYADSVKGRFTISRDNAKNTVYLQMNSLKPEDTAVYYCAARQSPNRWMGYWGQGTQVTVSS | high polyreactivity
QVQLVESGGGLVQAGGSLRLSCAASGLIFGPNAMGWYRQSPGKERELVAAITKSGDSTYYADSVKGRFTISRDNAKNTVYLQMNSLKPEDTAVYYCAADTTTGLYDYWGQGTQVTVSS | low polyreactivity
QVQLVESGGGLVQAGGSLRLSCAASGLIFGPYAVGWYRQAPGKERELVAGISRGGSTYYADSVKGRFTISRDNAKKTVYLQMNSLKPEDTAVYYCAASRRYRGVNRPGDYWGQGTQVTVSS | high polyreactivity
QVQLVESGGGLVQAGGSLRLSCAASGLIFGRNVMGWYRQAPGKERELVAAISWSGGRTYYADSVKGRFTISRDNEKNTVYLQMNSLKPEDTAVYYCAAGYPYYYWTPYYYWGQGTQVTVSS | high polyreactivity
